Experimental findings from patent US20220195015A1 (published 2022) are described below.

First the molecules themselves.
B1: C098 (antibody, V domains shown)
VH: EVQLVESGGGLIQPGGSLRLSCAASGFTVSSNYMSWVRQAPGKGLEWVSVIYSGGSTYYADSVKGRFTISRDNSKNTLYLQMNSLRAEDTAVYYCARDLYSSGGTDIWGQGTMVTVSS
VL: not shown
B2: C099 (antibody, V domains shown)
VH: B1 VH with F27I, I51M, S53A, Y58F, N73D, Y79F, V92I
VL: EIVLTQSPGTLSLSPGERATLSCRASQSIGSSYLAWYQQKPGLAPRLLIYGASRRATGIPDKFSGSGSGADFTLTISRLEPEDFAVYYCQQYGSSPGTFGQGTKVEIK
B3: C043 (antibody, V domains shown)
VH: QLVQSGPEVKKPGTSVKVSCKASGFTFYNSAVQWVRQARGQRLEWVGWIVVGSGNTDYAQKFQERVTMTRDLSTNTAYMEVNSLRSEDTAVYYCAAPYCSGGTCLDGFDIWGQGTMVTVSS
VL: EIVLTQSPGTLSLSPGERGTLSCRASQSVRSNYLAWYKQRPGQAPRLLVYGASSRATGIPDRFSGSGSGTDFTLTISRLEPEDFAVYYCQQYGSSPWTFGQGTKVEIK
B4: C095 (antibody, V domains shown)
VH: VQLVEAGGGVVQPGRSLRLSCAASGLAFSIYGMHWVRQAPGKGLEWVAIVAQDGSKKYYADSVKGRFTISRDNSKNTLYLEMNSLRTEDTAVYYCVKEGRPSDTVVVVAFDYWGQGSLVTVSS
VL: DIQLTQSPSSLSASVGDRVTITCRASQSISNYLNWYQQKPGKAPKVIIYAASSLQSGVPSRFSGSGSGTDFTLTISSLQPEDFATYYCQQSHSIPRTFGQGTKVEIK
B5: C044 (antibody, V domains shown)
VH: EVQLVESGGGLVQPGGSLRLSCAASGFTFSSYSMNWVRQAPGKGLEWVSYISSSSSTIYYADSVKGRFTISRDNAKNSLYLQMNSLRDEDTAVYYCAREAHDGALTDYGDYLNWFDPWGQGTLVTVSS
VL: SYELTQPPSVSVAPGKTARITCGGNNIGSKSVHWYQQKPGQAPVLVIYYDSDRPSGIPERFSGSNSGNTATLTISRVEAGDEADYYCQVWDSSSDHLYWVFGGGTKLTVL
B6: C045 (antibody, V domains shown)
VH: B5 VH with S31T, Y59H
VL: B5 VL with N25T, S31N, S51N, S92T, S93T, L97F
B7: C097 (antibody, V domains shown)
VH: QVQLQESGPGLVKPSQTLSLTCTVSGGSISSGPYYWSWIRQHPGKGLEWIGYIYYSGSTYYNPSLKSRVTISVDTSKKQFSLNLNSVTAADTAVYYCARVWQYYDSTGSFDYWGQGTLVTVSS
VL: DIVMTQSPLSLPVTPGEPASISCRSSRGLLHSNGYNYLDWYLQKPGQSPQLLIYLGSNRASGVPDRFSGSGSVTDFTLNISRVEAEDVGVYYCMQALQTPFTFGPGTKVDIK
B8: C521 (antibody, V domains shown)
VH: EVQLVESGGGLVRPGGSLTLSCVASGFTVGSNFMSWVRQAPGKGLEWVSLIYNSGGTHYADSVKGRFTISRDRSKNTLYLQMNSLRAEDTAIYYCANHGYYYYMDVWGKGTTVTVS
VL: QSALTQPASVSGSPGQSITISCTGTGSDIGAYNYVSWHQHHPGKAPKLIIYDVSNRPSGVSNRFSGSKSGNTASLTISGLQAEDEADYYCTSYTNTTTPWVFGGGTKVTVL
B9: C099 (antibody, V domains shown)
VH: B1 VH with F27I, I51M, S53A, Y58F, N73D, Y79F, V92I
VL: B2 VL
B10: C098 (antibody, V domains shown)
VH: B1 VH
VL: not shown
B11: C096 (antibody, V domains shown)
VH: EVQLVESGGGLVKPGGSLRLSCVASGFTFRNAWMNWVRQAPGKGLEWVGRIKANSDGGTIDYAEPVQGRFTISREDSRNSLYLQMNSLKTEDTAVYYCTTGPQYDDFGHSYIVDSWGPGTLVTVSS
VL: DIVMTQSPLSLPVTLGEPASISCRSSQSLLHSNGFHFLEWYLQKPGQSPQLLIYVGSNRASGVPDRFSGSGSGTDFTLKISRVEAEDVGVYYCMQTLQTPLTFGGGTKVEIK
B12: C043 (antibody, V domains shown)
VH: B3 VH
VL: B3 VL
B13: C095 (antibody, V domains shown)
VH: B4 VH
VL: B4 VL
B14: C522 (antibody, V domains shown)
VH: EVQLVESGGGLIQPGGSLRLSCAASEFIVSRNYMSWVRQAPGKGLEWVSVIYSGGSTFYADSVKGRFTISRDESKNTLYLQMNSLRAEDTAIYYCARDRGGGILDYWGQGTLVTVS
VL: DIQMTQSPSSLSASVGDRVTITCQASQDINIFLNWYQQKPGKAPKLLIYDASSLETGVPSRFSGSGSGTDFTFTISSLQPEDFATYYCQQYGNLPKYTFGQGTKLEIK
B15: C080 (antibody, V domains shown)
VH: EVQLVQSGAEVKKPGESLNISCKASGYSFTIYWIAWVRQLPGKGLEWMGIIYPGDSDTRYSPSFQGQVTISADKSISTAYLQWRSLKASDSAVYYCARGVAVDWYFDLWGRGTLVTVSS
VL: QSVLTQPPSVSGAPGQRVTISCAGSSSNIGAGFDVYWYQQLPGTAPKLLIYGNNNRPSGVPDRFSGSKSGTSASLAITGLQAEDEADYYCQSSGSVLSDLYVFGTGTKVTVL
B16: C094 (antibody, V domains shown)
VH: QVQLQESGPGLVKPSETLSLTCNVSGVSISTDYWSWIRQPPGKGLEWIGYIYYSGNTKDYNPSLKSRVTISVDTSKNQFSLMLSSVTAADTAVYYCARHYDILTSLSWFDPWGQGTLVTVSS
VL: QSVLTQPPSVSAAPGQKVTISCSITNSNLGNIYVSWYQQLPGTAPKLLIYGNNKRPSGIPDRFSGSKSGTSATLGITGLQTGDEAHYYCGTWDSSLSANWVFGGGTKLTVL
B17: C035 (antibody, V domains shown)
VH: EVQLVESGGGLVQPGGSLRLSCAASGFIFSSYWMTWVRQAPGKGLEWVASIKYNGNERNYVDSVKGRFTISRDNARNSLFLQLNNLGAEDTAVYYCARQPESTIWYYFDYWGQGTLVTVSS
VL: SYELTQPPSVSVSPGQTARVTCSGHALPDQYTYWYQQRPGRAPVLVIYVNNQRPSGIPDRFSATTSGTTVTLTISGVQAEDEADYYCQSADSSGSYVVFGGGTKLTVL
B18: C044 (antibody, V domains shown)
VH: B5 VH
VL: B5 VL
B19: C045 (antibody, V domains shown)
VH: B5 VH with S31T, Y59H
VL: B5 VL with N25T, S31N, S51N, S92T, S93T, L97F
B20: C097 (antibody, V domains shown)
VH: B7 VH
VL: B7 VL
B21: C077 (antibody, V domains shown)
VH: QVQLVQSGAEVKKPGASVKVSCKASGYTFTSYAMHWVRQAPGQRLEWMGWINTDNGNTKYSQKFQGRVTITRDTSASTAYMELSSLRSEDTAVYYCAREGALTNWFDPWGQGTLVTVSS
VL: SYELTQPPSVSVAPGQTARIPCGGNNIGSKSVHWYQQKPGQAPVLVVYDDSDRPSGIPERFSGSNSGNTATLTISRVEAGDEADYYCQVWDSSSDLHVVFGGGTKLTVL
B22: C091 (antibody, V domains shown)
VH: QVQLVQSGAEVKKPGSSVKVSCKASGGTFSSYTISWVRQAPGQGLEWMGRIIPILGIANYAQKFQGRVTITADKSTSTAYMELSSLRSEDTAVYYCARDSGYSGYGSTYYMDVWGKGTTVTVSS
VL: QSVLTQPPSVSGAPGQRVTISCTGSSSNIGAGYDVHWYQQLPGTAPKLLIYGNSNRPSGVPDRFSGSKSGTSASLAITGLQAEDEADYYCQSYDSSLSGSVFGTVTKVTVL
B23: C092 (antibody, V domains shown)
VH: B22 VH with T28S, S30T, S31N, Y32H, T33F, I57T, K63N, T69M, I70M
VL: B22 VL with S26N, T44A, S54N, G70D, A82V, G99D, T104S, V105G

A word on the EC50: it is the concentration that produces a half-maximal response. A lower EC50 goes with greater potency.

Residue numbers refer to the chain shown, from its start.

In the first test the target is SARS-CoV-2 spike protein on HIV-1 pseudotyped particles (SARS-CoV-2, UniProt P0DTC2 14-1254). Briefly: cell-based or functional assay.
Take B1: the “Neutralization IC50” value amounted to 0.479 µg/mL and the “Neutralization IC90” value was determined as 4.25 µg/mL.

On to B2, for which the “Neutralization IC50” value was found to be 0.0272 µg/mL and the “Neutralization IC90” value stood at 0.0861 µg/mL.

Regarding B3, the “Neutralization IC50” value is 0.0106 µg/mL and the “Neutralization IC90” value is 0.0744 µg/mL.

On to B4, for which the “Neutralization IC50” value came out at 0.0113 µg/mL and the “Neutralization IC90” value is 0.0526 µg/mL.

Consider B5, for which the “Neutralization IC50” value was greater than 10 µg/mL and the “Neutralization IC90” value is greater than 10 µg/mL.

Turning to B6, the “Neutralization IC50” value is greater than 10 µg/mL and the “Neutralization IC90” value was greater than 10 µg/mL.

For B7, the “Neutralization IC50” value worked out at 0.0096 µg/mL and the “Neutralization IC90” value worked out at 0.0311 µg/mL.

In a further test the target is SARS-CoV-2 RBD (wild type) (SARS-CoV-2, UniProt P0DTC2 319-539). Briefly: ELISA on coated RBD. (In an ELISA, binding on a coated surface is turned into a signal by an enzyme label.)
B8 showed an EC50 of 0.0069 µg/mL.

Molecule B9 displayed a 50% effective concentration (EC50) of 0.00245 µg/mL.

In turn, B10 registered an EC50 of 0.0077 µg/mL.

With B11, the EC50 is 0.00518 µg/mL.

B12: the 50% effective concentration (EC50) stood at 0.0121 µg/mL.

Regarding B13, the EC50 is 0.0011 µg/mL.

The molecule B14 came in with a concentration for a half-maximal effect (EC50) of 0.00093 µg/mL.

As for B15, a half-maximal effect (EC50) was put at 0.00197 µg/mL.

B16 yielded a concentration for a half-maximal effect (EC50) of 0.00167 µg/mL.

B17: the EC50 stood at 0.0152 µg/mL.

For B18, a half-maximal response (EC50) required 1.82 µg/mL.

B19 yielded a concentration giving a half-maximal response (EC50) of 0.007 µg/mL.

Regarding B20, the concentration giving a half-maximal response (EC50) was 0.00345 µg/mL.

For the molecule B21, the EC50 worked out at 0.0459 µg/mL.

In turn, B22 yielded a concentration giving a half-maximal response (EC50) of 0.0895 µg/mL.

Take B23: the EC50 stood at 0.00707 µg/mL.
